In publication PMC4510890:

Experiments:
[1] = biological target: recombinant rabbit ASI(+)RyR1 (rabbit) (UniProt P11716)
[2] = biological target: recombinant rabbit ASI(+)RyR1 (rabbit) (UniProt P11716); remark: listed apart in the source

“dihydropyridine receptor β1a subunit (from UniProt P19517 1-524) (natural protein)” gave a relative Po of ASI(+)RyR1 channels in lipid bilayers, 10 nM β1a (50 nM also tested, number not given), cis 10 μM Ca2+, no ATP [1] of 4.4 fold, a relative Po of ASI(−)RyR1 channels in lipid bilayers, 10 nM β1a (50 nM also tested, number not given), cis 10 μM Ca2+, no ATP [1] of 2.3 fold and a relative Po of WT RyR1 channels in lipid bilayers, 10 nM to 100 nM β1a (1.8-fold at 10 nM, 1.9-fold at 100 nM), cis 10 μM Ca2+ and 2 mM ATP [2] of 1.9 fold.
